2 substances from publication PMC12208494, “The zinc metalloprotein MigC impacts cell wall biogenesis through interactions with an essential Mur ligase in Acinetobacter baumannii” (PLOS Pathogens, 2025) can be followed below.

Assay [1] has as its target MurD (A1S_0245), recombinant, purified (Acinetobacter baumannii). In words: enzyme inhibition curve (HPLC assay of MurD activity); 40 nM MurD; Zn-loaded MigC (1.0 mol equivalent ZnSO4) 0.025-75 µM final, with GTP; enzyme mixture pre-incubated 10 min at 37 °C; 200 µM UMA, 1 mM D-glutamate, 1 mM ATP, 0.1 mg/mL BSA; 25 mM HEPES, 150 mM KCl, 2 mM MgCl2, 2 mM TCEP, pH 7.4, 37 °C; Ki fitted with the maximal inhibition fixed from a global fit.

The target is the same in assay [2].
For assay [3] the target is unchanged. In words: enzyme inhibition curve (HPLC assay of MurD activity); as a3 but apo MigC (no Zn) with GTP.
For assay [4] the target is unchanged. The assay can be described thus: enzyme inhibition curve (HPLC assay of MurD activity); as a3 but apo MigC (no Zn) without GTP.

Sequence of MurD (A1S_0245), recombinant, purified (Acinetobacter baumannii) (A3M1C6 whole entry): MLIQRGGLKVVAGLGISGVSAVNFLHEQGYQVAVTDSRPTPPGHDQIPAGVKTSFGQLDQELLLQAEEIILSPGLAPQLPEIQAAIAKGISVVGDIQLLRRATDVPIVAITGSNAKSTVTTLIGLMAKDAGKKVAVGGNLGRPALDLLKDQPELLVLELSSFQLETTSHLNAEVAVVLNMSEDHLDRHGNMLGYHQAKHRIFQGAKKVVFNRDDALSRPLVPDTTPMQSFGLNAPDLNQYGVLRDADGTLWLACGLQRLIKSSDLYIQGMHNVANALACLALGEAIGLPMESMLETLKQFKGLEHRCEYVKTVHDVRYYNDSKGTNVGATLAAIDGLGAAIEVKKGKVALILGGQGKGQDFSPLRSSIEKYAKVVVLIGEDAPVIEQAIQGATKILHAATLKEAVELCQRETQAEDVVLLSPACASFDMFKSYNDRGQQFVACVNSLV

As to “E99A MigC, recombinant, purified (enzyme)”, in assay [1], the Ki stood at 21 µM.
As to “MigC (A1S_0934), recombinant, purified (enzyme)”, the maximal inhibition of MurD activity at saturating Zn-MigC (inhibition curves, 0.025-75 µM MigC, HPLC) in assay [2] turned out to be 75%. The Ki worked out at 43 µM in assay [3], 20 µM in assay [4] and 32 µM in assay [1].
